Experimental data published in PMC8299537.

Target: DPP9, short isoform (His-TEV-DPP9), co-purified with NLRP1ΔΔ (human), Q86TI2
Experiment: cryo-EM structure
Conditions: remark: other sources report otherwise

stoichiometry N: 2
B1: DPP9, short isoform (His-TEV-DPP9), co-purified with NLRP1ΔΔ, Q86TI2-1 1-863 (enzyme)
chain: MATTGTPTADRGDAAATDDPAARFQVQKHSWDGLRSIIHGSRKYSGLIVNKAPHDFQFVQKTDESGPHSHRLYYLGMPYGSRENSLLYSEIPKKVRKEALLLLSWKQMLDHFQATPHHGVYSREEELLRERKRLGVFGITSYDFHSESGLFLFQASNSLFHCRDGGKNGFMVSPMKPLEIKTQCSGPRMDPKICPADPAFFSFINNSDLWVANIETGEERRLTFCHQGLSNVLDDPKSAGVATFVIQEEFDRFTGYWWCPTASWEGSEGLKTLRILYEEVDESEVEVIHVPSPALEERKTDSYRYPRTGSKNPKIALKLAEFQTDSQGKIVSTQEKELVQPFSSLFPKVEYIARAGWTRDGKYAWAMFLDRPQQWLQLVLLPPALFIPSTENEEQRLASARAVPRNVQPYVVYEEVTNVWINVHDIFYPFPQSEGEDELCFLRANECKTGFCHLYKVTAVLKSQGYDWSEPFSPGEDEFKCPIKEEIALTSGEWEVLARHGSKIWVNEETKLVYFQGTKDTPLEHHLYVVSYEAAGEIVRLTTPGFSHSCSMSQNFDMFVSHYSSVSTPPCVHVYKLSGPDDDPLHKQPRFWASMMEAASCPPDYVPPEIFHFHTRSDVRLYGMIYKPHALQPGKKHPTVLFVYGGPQVQLVNNSFKGIKYLRLNTLASLGYAVVVIDGRGSCQRGLRFEGALKNQMGQVEIEDQVEGLQFVAEKYGFIDLSRVAIHGWSYGGFLSLMGLIHKPQVFKVAIAGAPVTVWMAYDTGYTERYMDVPENNQHGYEAGSVALHVEKLPNEPNRLLILHGFLDENVHFFHTNFLVSQLIRAGKPYQLQIYPNERHSIRCPESGEHYEVTLLHFLQEYL
